In PMC7060239, “Two distinct modes of DNMT1 recruitment ensure stable maintenance DNA methylation” (Nature Communications, 2020):
One block for each binder: values may come before it.

Molecular target: T1, PHD finger of human UHRF1 (residues 299–366) (human, UniProt Q96T88 299-366)
T1 construct: UHRF1, human, PHD finger, residues 299–366; also called hPHD; UHRF1 PHD finger; source: recombinant, purified (glutathione Sepharose 4B, HiTrap Q HP, Superdex75); not shown: GST, N-terminal, cleaved; SUMO-1, N-terminal, cleaved
T1 sequence (looked up): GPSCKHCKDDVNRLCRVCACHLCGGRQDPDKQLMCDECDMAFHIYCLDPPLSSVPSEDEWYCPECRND
Assay: ITC; hPHD and PAF15_(2-11) or H3 peptides; VP-ITC; 10 mM HEPES-NaOH (pH 7.5), 150 mM NaCl, 0.25 mM TCEP; one-site model
Settings: both partners purified

Kd: 2200 ± 300 nM
B1: human PAF15 (residues 2–11) peptide (peptide, UniProt Q15004 2-11, looked up)
peptide: VRTKADSVPG
notes: PCNA-associated factor 15 (PAF15), human, residues 2–11; begins with 2VRTK5; also called hPAF15_(2-11); PAF15_(2-11); source: synthetic peptide (Toray Research Center)

binding result: binds
B2: hPAF15_(2-11)-K5A peptide (peptide, UniProt Q15004 2-11, looked up)
peptide: VRTAADSVPG
notes: PCNA-associated factor 15 (PAF15), human, residues 2–11; also called PAF15 K5A

Kd: 1500 ± 100 nM
B3: N-terminal histone H3 peptide (peptide)
chain: ARTKQTARKST
modifications: Unmodified free N-terminus assumed (initiator Met removed). Peptide limits are not printed in the supplied text (ITC in Supplementary Fig. 2d). Mature H3 residues 1-11 taken by convention from UHRF1 …
